IC50 and stoichiometry N data for three compounds are collected here from article PMC5854407 (Nature, 2017).

The target of one assay is T1, hTRPV6 (Homo sapiens, UniProt Q9H1D0, R510E).
T1 sequence (Q9H1D0 41-765 R510E): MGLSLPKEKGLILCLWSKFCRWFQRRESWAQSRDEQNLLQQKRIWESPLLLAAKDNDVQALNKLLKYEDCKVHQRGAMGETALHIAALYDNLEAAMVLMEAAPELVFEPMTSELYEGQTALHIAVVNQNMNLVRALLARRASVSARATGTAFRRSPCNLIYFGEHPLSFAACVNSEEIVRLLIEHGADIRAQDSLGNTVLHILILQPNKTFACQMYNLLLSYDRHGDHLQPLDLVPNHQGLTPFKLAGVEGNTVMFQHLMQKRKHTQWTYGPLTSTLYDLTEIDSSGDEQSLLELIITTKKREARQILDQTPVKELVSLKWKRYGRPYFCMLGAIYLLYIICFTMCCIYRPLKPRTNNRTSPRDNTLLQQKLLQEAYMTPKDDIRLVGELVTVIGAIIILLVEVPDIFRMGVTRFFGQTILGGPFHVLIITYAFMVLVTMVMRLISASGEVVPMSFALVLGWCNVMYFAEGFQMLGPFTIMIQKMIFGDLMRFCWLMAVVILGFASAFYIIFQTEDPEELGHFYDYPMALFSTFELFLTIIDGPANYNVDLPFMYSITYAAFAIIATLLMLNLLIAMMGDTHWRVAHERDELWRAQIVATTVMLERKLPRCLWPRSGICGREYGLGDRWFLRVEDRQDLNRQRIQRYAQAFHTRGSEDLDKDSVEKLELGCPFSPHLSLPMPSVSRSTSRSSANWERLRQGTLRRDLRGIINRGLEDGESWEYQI
Nature of the assay: Fura-2 AM ratiometric Ca2+ uptake in HEK cells. In kind it is cell-based.

A further assay addresses hTRPV6-R470E (human). Nature of the assay: cryo-EM structure.
Assay [1] concerns the target rTRPV6* (rat TRPV6 construct previously used for crystallographic studies) (rat). Briefly: cryo-EM structure.

Usually IC50 stands for the concentration that inhibits the measured activity by half. As to `NCCOB(c1ccccc1)c1ccccc1` [2-APB], half-maximal inhibition against hTRPV6 (IC50) was put at 85 ± 5 µM.
As usually defined, the stoichiometry N is a count of units in the complex or per binding partner. In the case of hTRPV6-R470E (natural protein), the stoichiometry N in the assay with hTRPV6-R470E (human) was determined as 4.
Compound “rTRPV6* (rat TRPV6 construct previously used for crystallographic studies) (natural protein)” yielded a stoichiometry N in assay [1] of 4.
